We go through 7 molecules from publication PMC6009700.

Series [1] addresses T1, TubR (Clostridium botulinum prophage c-st, UniProt Q331T6 1-81).
T1 sequence: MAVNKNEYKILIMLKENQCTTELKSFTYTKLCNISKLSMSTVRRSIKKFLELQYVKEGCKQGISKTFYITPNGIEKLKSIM
Kind of series: EMSA. Background: Mobility shift assays separate free from complexed probe on a gel.

Series [2] concerns the target T1, TubR. Nature of the series: EMSA. This is another data set of the same source.
Series [3] has as its target T1, TubR. Kind of series: fluorescence anisotropy.
Series [4] deals with T1, TubR. Nature of the series: fluorescence anisotropy. This is another data set of the same source.

Read-outs that look alike come from different tables or passages of the source.

B1: SF2 (dsDNA)
DNA 1: AGAATATACTTTGAATATAATTAGACTTAAACAAGATTACTTTTAGACTATAGTATAAATATAATTAGAAAATAATTTGAATAATTTATGAAAATAAGTACACATTTTCTAAGGAATATAGTATAATATAGTAAAGAAAGA
DNA 2: TCTTTCTTTACTATATTATACTATATTCCTTAGAAAATGTGTACTTATTTTCATAAATTATTCAAATTATTTTCTAATTATATTTATACTATAGTCTAAAAGTAATCTTGTTTAAGTCTAATTATATTCAAAGTATATTCT
B1: in the series with TubR [1], the binding result was “binds”.

B2: SF1 (dsDNA)
DNA 1: TAAGGAATATAGTATAATATAGTAAAGAAAGAAATAAACATGATATGAACATATATTGACTACAGTTTGACATAGTTTTGACTATGATATGAACAAAATAAGAATGTATTATGAATATTTTCTTACATTACTGCGACTACTATCAG
DNA 2: CTGATAGTAGTCGCAGTAATGTAAGAAAATATTCATAATACATTCTTATTTTGTTCATATCATAGTCAAAACTATGTCAAACTGTAGTCAATATATGTTCATATCATGTTTATTTCTTTCTTTACTATATTATACTATATTCCTTA
Take B2: the binding result with TubR [1] is “binds”.

B3: CP1 (dsDNA)
DNA 1: TATAGTAAAGAAAGAAATAAACATGATATGAACATATATTGACTACAGTTTGACATAGTTTTGACTATGATATGAACAAAATAAGAATGTATTA
DNA 2: TAATACATTCTTATTTTGTTCATATCATAGTCAAAACTATGTCAAACTGTAGTCAATATATGTTCATATCATGTTTATTTCTTTCTTTACTATA
Consider B3, for which, in the series with TubR [2], the binding result is “binds”.

B4: SF1b (dsDNA)
DNA 1: AAATAAACATGATATGAACATATATTGACTACAGTTTGACATAGTTTTGAC
DNA 2: GTCAAAACTATGTCAAACTGTAGTCAATATATGTTCATATCATGTTTATTT
On to B4, for which the “apparent K (half saturation)” value with TubR [3] was found to be 184 ± 4.04 nM.

B5: SF3b (dsDNA)
DNA 1: TGAACATATAGTGAACATAATACAACTAGTACAAGAATGTAGTTTGACTAT
DNA 2: ATAGTCAAACTACATTCTTGTACTAGTTGTATTATGTTCACTATATGTTCA
Take B5: the “apparent K (half saturation)” value with TubR [4] was 138 ± 7.7 nM.

B6: Shuffle DNA (dsDNA)
DNA 1: AATCGTAAAATATTACAATATAAGGTAACAAGATATTCCTTTTTGGAGCAT
DNA 2: ATGCTCCAAAAAGGAATATCTTGTTACCTTATATTGTAATATTTTACGATT
For the molecule B6, the binding result with TubR [1] is recorded as “no binding”.

B7: SF3 (dsDNA)
DNA 1: GTTAATTGTAGCGTTAAGTGAGACATAGAATTGAACATATAGTGAACATAATACAACTAGTACAAGAATGTAGTTTGACTATAATTTGAACATATTTAGAATATACTTTGAATATAATTAGACTTAAACAAG
DNA 2: CTTGTTTAAGTCTAATTATATTCAAAGTATATTCTAAATATGTTCAAATTATAGTCAAACTACATTCTTGTACTAGTTGTATTATGTTCACTATATGTTCAATTCTATGTCTCACTTAACGCTACAATTAAC
Take B7: the binding result with TubR [1] is listed as “binds”.
